{"source": "paper PMC9867944", "about": "(Bioscience Reports, 2023)", "binders": {"B1": {"name": "anti-PD-1 Nb C12, displayed on phage (VHH)", "VHH": "QVQLQELGETRCRHGGSLRLSCKVSGYTQRSYCLGWLRQAPGNEREAVAVLQHSGNFRHYADSVQGRFVISQDYTDNTVYLAMNNLKSEDAAMYYCAAVGLRVSQFNYWGQGTQVTVSS", "notes": "VHH C12 selected from a naive Bactrian camel phage display library; same VHH as in m1; Detected with anti-M13/HRP; also called C12 Nb; source: E. coli TG1, phage in the supernatant of the colonies"}, "B2": {"name": "mouse PD-1 protein (receptor, UniProt Q02242 25-288, looked up)", "chain": "LEVPNGPWRSLTFYPAWLTVSEGANATFTCSLSNWSEDLMLNWNRLSPSNQTEKQAAFCNGLSQPVQDARFQIIQLPNRHDFHMNILDTRRNDSGIYLCGAISLHPKAKIEESPGAELVVTERILETSTRYPSPSPKPEGRFQGM", "notes": "programmed death protein 1 (PD-1), mouse, protein coated on plates; also called mouse PD-1 antigen"}, "B3": {"name": "anti-PD-1 Nb C11, displayed on phage (VHH)", "VHH": "QVQLQESGGAWCEPGGSLTLPCAVSGFAVDRDAVSWVRKAPGQGLQWVSTTTPDGTNYYGALAKDRFTVTRDTTRNTLQLQLTKLRIEDTAKYHCVQDYCSTGRCSLRTQGTQVTVSS", "notes": "VHH C11 selected from a naive Bactrian camel phage display library; Detected with anti-M13/HRP; C11 was never made as an Fc fusion (ligation to pCZN1 failed); also called C11 Nb; source: E. coli TG1, phage in the supernatant of the colonies"}}, "key": {"[1]": {"biological_target": "T1, human PD-1 protein (Acro biosystems) (Homo sapiens (Human)., UniProt Q15116)", "T1 construct": "programmed death protein 1 (PD-1), human, recombinant protein; probably the extracellular domain; also called human PD-1 antigen; hPD-1; source: bought: Acro biosystems", "T1 sequence (Q15116 25-170)": "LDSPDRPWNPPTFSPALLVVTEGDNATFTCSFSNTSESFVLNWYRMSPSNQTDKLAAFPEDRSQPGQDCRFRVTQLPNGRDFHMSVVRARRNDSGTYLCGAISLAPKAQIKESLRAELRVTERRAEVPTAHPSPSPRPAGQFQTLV", "experiment": "ELISA; Phage-ELISA; wells coated with human PD-1 protein; supernatant of the colonies added for 1 h; anti-M13/HRP (1:5000); positive if absorbance more than two times the negative control (PBS)", "conditions": "one partner purified"}, "[2]": {"biological_target": "T2, anti-PD-1 Nb C12-Fc (Bactrian camel)", "T2 construct": "VHH C12 selected from a naive Bactrian camel phage display library; Nb C12 fused to the human IgG1 Fc fragment in plasmid pCZN1; about 40 kDa on SDS-PAGE; also called anti-PD-1 Nb-Fc; PD-1 C12 Nb-Fc", "experiment": "ELISA; plates coated with human PD-1 or mouse PD-1 protein at 2 ug/ml overnight; serial diluted anti-PD-1 Nb-Fc added, 37 C, 1 h; HRP-conjugated antihuman IgG", "conditions": "both partners purified"}}}
{"binder": "B1", "values": [{"measurement": "binding result", "setting": "[1]", "value": "binds"}]}
{"binder": "B2", "values": [{"measurement": "binding result", "setting": "[2]", "value": "no binding"}]}
{"binder": "B3", "values": [{"measurement": "binding result", "setting": "[1]", "value": "binds"}]}
